Test system: GFP-tagged PRPF40A-Nter-MUT
Assay: SILAC GFP-immunoprecipitation with quantitative mass spectrometry, mutant construct
Format: binding, human (Hela cells)
Settings: quantitative MS, Hela cells, protein by gene name
Protocol: The PRPF40A N-terminal region (isoform 2, residues 1-221) was PCR-amplified from RPE1 cDNA (ATCC, Cat# CRL-4000) cDNA. The sequence was amplified in two fragments and both fragments were combined by overhang. All PCRs were carried out using Q5 Polymerase (NEB) according to manufacturer’s protocol. The resulting PRPF40A N-terminal region was cloned into a GFP-expressing pcDNA5 vector (see pcDNA5 GFP vector in ref. [28]) using Q5 Site-Directed Mutagenesis Kit (NEB). Nter-MUT, containing the PPVP/PALPP motifs changed to AAAA/AAAAA, was obtained by mutating the N-ter-WW12-containing plasmid with Q5 site-directed mutagenesis. Plasmids were transformed into DH5alpha chemically competent cells. After culturing, DNA isolation was performed with either ZymoPURE Plasmid Miniprep Kit (Zymo Research) or QIAGEN Plasmid Plus Midi Kit (Qiagen). The sequence was confirmed by Sanger Sequencing (GATC Eurofins). All used oligonucleotides are shown in Supplementary Table 6.
Hela cells (ATCC, Cat# CCL-2, RRID:CVCL_0030) were cultured in DMEM SILAC medium (Thermo Fisher) supplemented with 10% filtered FBS (Sigma-Aldrich) and 1% penicillin-streptomycin (Thermo-Fisher). The SILAC medium contains either light (Arg0, Lys0), medium (Arg6, Lys4) or heavy (Arg10, Lys8) isotopes (Cambridge Isotopes Laboratories). Hela cells were cultivated for 14 days in SILAC medium to assure sufficient isotope incorporation. For transfection, 7 × 10^6 Hela cells were seeded in a 15 cm culture dish in 20 ml of respective SILAC medium and grown for 24 h. The cells were then transfected with 20 µg of plasmids expressing either GFP (Control), GFP-tagged N-ext-WW12 or GFP-tagged-N-ext-WW12-MUT utilizing 64 µl FuGENE (Promega) (ratio 1:3.2), according to manufacturer’s protocol.
24 h post-transfection, cells were washed twice in ice-cold PBS and harvested in 1 ml mRIPA buffer (50 mM Tris, 150 mM NaCl, 1 mM EDTA, 1% NP-40, 0.1% Na-deoxycholate), supplemented with 2 µl Turbo-DNase (Thermo Fisher) and 3 µl protease-inhibitor cocktail cOmplete (Sigma-Aldrich). Cell lysates were cleared by centrifugation at 16,000 × g, 4 °C, 15 min and concentration was measured using Pierce BCA Protein Assay kit (Thermo Scientific). The expressed constructs were pulled down by incubating 2.5 mg of lysate with 20 μl GFP-nanobody agarose beads (ChromoTek, GTA-20) for 1 h at 4 °C under constant agitation. Subsequently, beads were washed three times with mRIPA buffer without supplements, then eluted in 1X NuPAGE LDS sample buffer (Thermo Scientific). To detach the proteins from the beads, the eluate was heated to 70 °C for 10 min To evaluate the success of the immunoprecipitation, input (1%) and IP samples were analyzed on a NuPAGE 4–12% Bis-Tris-Acrylamide gel (Thermo Fisher) using NuPAGE MOPS SDS running buffer (Thermo Fisher). Proteins were stained using Sypro Ruby protein gel stain (Thermo Fisher) according to manufacturer’s protocol.
The eluted proteins of three SILAC states (light, medium, heavy) were combined. The proteins were then reduced in DTT, alkylated in iodoacetamide, and purified using the SP3 paramagnetic bead approach. This was followed by overnight enzymatic digestion using trypsin (1 µg per sample) in 50 mM ammonium bicarbonate at 37 °C. The peptide solution was then purified by solid phase extraction in C18 StageTips[99].
Peptides were separated by online reverse phase liquid chromatography using the EASY-nLC 1000 system (Thermo Scientific) in a 30-cm analytical column (inner diameter: 75 μm; heated at 50 °C) packed in-house with ReproSil-Pur 120 C18-AQ 1.9-μm beads (Dr. Maisch GmbH). The gradient separation was performed through a 105-min non-linear gradient of 1.6–32% acetonitrile with 0.1% formic acid at a nanoflow rate of 225 nl/min. The eluted peptides were sprayed directly by electrospray ionization into a Q Exactive Plus Orbitrap mass spectrometer (Thermo Scientific). […]

Molecule	Immunoprecipitation enrichment MUT vs WT, log2 FC
DDX20 (protein, UniProt Q9UHI6 1-824, looked up) Probable ATP-dependent RNA …: MAAAFEASGALAAVATAMPAEHVAVQVPAPEPTPGPVRILRTAQDLSSPRTRTGDVLLAEPADFESLLLSRPVLEGLRAAGFERPSPVQLKAIPLGRCGLDLIVQAKSGTGKTCVFSTIALDSLVLENLSTQILILAPTREIAVQIHSVITAIGIKMEGLECHVFIGGTPLSQDKTRLKKCHIAVGSPGRIKQLIELDYLNPGSIRLFILDEADKLLEEGSFQEQINWIYSSLPASKQMLAVSATYPEFLANALTKYMRDPTFVRLNSSDPSLIGLKQYYKVVNSYPLAHKVFEEKTQHLQELFSRIPFNQALVFSNLHSRAQHLADILSSKGFPAECISGNMNQNQRLDAMAKLKHFHCRVLISTDLTSRGIDAEKVNLVVNLDVPLDWETYMHRIGRAGRFGTLGLTVTYCCRGEEENMMMRIAQKCNINLLPLPDPIPSGLMEECVDWDVEVKAAVHTYGIASVPNQPLKKQIQKIERTLQIQKAHGDHMASSRNNSVSGLSVKSKNNTKQKLPVKSHSECGIIEKATSPKELGCDRQSEEQMKNSVQTPVENSTNSQHQVKEALPVSLPQIPCLSSFKIHQPYTLTFAELVEDYEHYIKEGLEKPVEIIRHYTGPGDQTVNPQNGFVRNKVIEQRVPVLASSSQSGDSESDSDSYSSRTSSQSKGNKSYLEGSSDNQLKDSESTPVDDRISLEQPPNGSDTPNPEKYQESPGIQMKTRLKEGASQRAKQSRRNLPRRSSFRLQTEAQEDDWYDCHREIRLSFSDTYQDYEEYWRAYYRAWQEYYAAASHSYYWNAQRHPSWMAAYHMNTIYLQEMMHSNQ	1.113
SF3B1 (protein, UniProt O75533 1-1304, looked up) Splicing factor 3B subunit 1: MAKIAKTHEDIEAQIREIQGKKAALDEAQGVGLDSTGYYDQEIYGGSDSRFAGYVTSIAATELEDDDDDYSSSTSLLGQKKPGYHAPVALLNDIPQSTEQYDPFAEHRPPKIADREDEYKKHRRTMIISPERLDPFADGGKTPDPKMNARTYMDVMREQHLTKEEREIRQQLAEKAKAGELKVVNGAAASQPPSKRKRRWDQTADQTPGATPKKLSSWDQAETPGHTPSLRWDETPGRAKGSETPGATPGSKIWDPTPSHTPAGAATPGRGDTPGHATPGHGGATSSARKNRWDETPKTERDTPGHGSGWAETPRTDRGGDSIGETPTPGASKRKSRWDETPASQMGGSTPVLTPGKTPIGTPAMNMATPTPGHIMSMTPEQLQAWRWEREIDERNRPLSDEELDAMFPEGYKVLPPPAGYVPIRTPARKLTATPTPLGGMTGFHMQTEDRTMKSVNDQPSGNLPFLKPDDIQYFDKLLVDVDESTLSPEEQKERKIMKLLLKIKNGTPPMRKAALRQITDKAREFGAGPLFNQILPLLMSPTLEDQERHLLVKVIDRILYKLDDLVRPYVHKILVVIEPLLIDEDYYARVEGREIISNLAKAAGLATMISTMRPDIDNMDEYVRNTTARAFAVVASALGIPSLLPFLKAVCKSKKSWQARHTGIKIVQQIAILMGCAILPHLRSLVEIIEHGLVDEQQKVRTISALAIAALAEAATPYGIESFDSVLKPLWKGIRQHRGKGLAAFLKAIGYLIPLMDAEYANYYTREVMLILIREFQSPDEEMKKIVLKVVKQCCGTDGVEANYIKTEILPPFFKHFWQHRMALDRRNYRQLVDTTVELANKVGAAEIISRIVDDLKDEAEQYRKMVMETIEKIMGNLGAADIDHKLEEQLIDGILYAFQEQTTEDSVMLNGFGTVVNALGKRVKPYLPQICGTVLWRLNNKSAKVRQQAADLISRTAVVMKTCQEEKLMGHLGVVLYEYLGEEYPEVLGSILGALKAIVNVIGMHKMTPPIKDLLPRLTPILKNRHEKVQENCIDLVGRIADRGAEYVSAREWMRICFELLELLKAHKKAIRRATVNTFGYIAKAIGPHDVLATLLNNLKVQERQNRVCTTVAIAIVAETCSPFTVLPALMNEYRVPELNVQNGVLKSLSFLFEYIGEMGKDYIYAVTPLLEDALMDRDLVHRQTASAVVQHMSLGVYGFGCEDSLNHLLNYVWPNVFETSPHVIQAVMGALEGLRVAIGPCRMLQYCLQGLFHPARKVRDVYWKIYNSIYIGSQDALIAHYPRIYNDDKNTYIRYELDYIL	0.9931
SF3B3 (protein, UniProt Q15393 1-1217, looked up) Splicing factor 3B subunit 3: MFLYNLTLQRATGISFAIHGNFSGTKQQEIVVSRGKILELLRPDPNTGKVHTLLTVEVFGVIRSLMAFRLTGGTKDYIVVGSDSGRIVILEYQPSKNMFEKIHQETFGKSGCRRIVPGQFLAVDPKGRAVMISAIEKQKLVYILNRDAAARLTISSPLEAHKANTLVYHVVGVDVGFENPMFACLEMDYEEADNDPTGEAAANTQQTLTFYELDLGLNHVVRKYSEPLEEHGNFLITVPGGSDGPSGVLICSENYITYKNFGDQPDIRCPIPRRRNDLDDPERGMIFVCSATHKTKSMFFFLAQTEQGDIFKITLETDEDMVTEIRLKYFDTVPVAAAMCVLKTGFLFVASEFGNHYLYQIAHLGDDDEEPEFSSAMPLEEGDTFFFQPRPLKNLVLVDELDSLSPILFCQIADLANEDTPQLYVACGRGPRSSLRVLRHGLEVSEMAVSELPGNPNAVWTVRRHIEDEFDAYIIVSFVNATLVLSIGETVEEVTDSGFLGTTPTLSCSLLGDDALVQVYPDGIRHIRADKRVNEWKTPGKKTIVKCAVNQRQVVIALTGGELVYFEMDPSGQLNEYTERKEMSADVVCMSLANVPPGEQRSRFLAVGLVDNTVRIISLDPSDCLQPLSMQALPAQPESLCIVEMGGTEKQDELGERGSIGFLYLNIGLQNGVLLRTVLDPVTGDLSDTRTRYLGSRPVKLFRVRMQGQEAVLAMSSRSWLSYSYQSRFHLTPLSYETLEFASGFASEQCPEGIVAISTNTLRILALEKLGAVFNQVAFPLQYTPRKFVIHPESNNLIIIETDHNAYTEATKAQRKQQMAEEMVEAAGEDERELAAEMAAAFLNENLPESIFGAPKAGNGQWASVIRVMNPIQGNTLDLVQLEQNEAAFSVAVCRFSNTGEDWYVLVGVAKDLILNPRSVAGGFVYTYKLVNNGEKLEFLHKTPVEEVPAAIAPFQGRVLIGVGKLLRVYDLGKKKLLRKCENKHIANYISGIQTIGHRVIVSDVQESFIWVRYKRNENQLIIFADDTYPRWVTTASLLDYDTVAGADKFGNICVVRLPPNTNDEVDEDPTGNKALWDRGLLNGASQKAEVIMNYHVGETVLSLQKTTLIPGGSESLVYTTLSGGIGILVPFTSHEDHDFFQHVEMHLRSEHPPLCGRDHLSFRSYYFPVKNVIDGDLCEQFNSMEPNKQKNVSEELDRTPPEVSKKLEDIRTRYAF	0.8966
SF3B2 (protein, UniProt Q13435 1-895, looked up) Splicing factor 3B subunit 2: MATEHPEPPKAELQLPPPPPPGHYGAWAAQELQAKLAEIGAPIQGNREELVERLQSYTRQTGIVLNRPVLRGEDGDKAAPPPMSAQLPGIPMPPPPLGLPPLQPPPPPPPPPPGLGLGFPMAHPPNLGPPPPLRVGEPVALSEEERLKLAQQQAALLMQQEERAKQQGDHSLKEHELLEQQKRAAVLLEQERQQEIAKMGTPVPRPPQDMGQIGVRTPLGPRVAAPVGPVGPTPTVLPMGAPVPRPRGPPPPPGDENREMDDPSVGPKIPQALEKILQLKESRQEEMNSQQEEEEMETDARSSLGQSASETEEDTVSVSKKEKNRKRRNRKKKKKPQRVRGVSSESSGDREKDSTRSRGSDSPAADVEIEYVTEEPEIYEPNFIFFKRIFEAFKLTDDVKKEKEKEPEKLDKLENSAAPKKKGFEEEHKDSDDDSSDDEQEKKPEAPKLSKKKLRRMNRFTVAELKQLVARPDVVEMHDVTAQDPKLLVHLKATRNSVPVPRHWCFKRKYLQGKRGIEKPPFELPDFIKRTGIQEMREALQEKEEQKTMKSKMREKVRPKMGKIDIDYQKLHDAFFKWQTKPKLTIHGDLYYEGKEFETRLKEKKPGDLSDELRISLGMPVGPNAHKVPPPWLIAMQRYGPPPSYPNLKIPGLNSPIPESCSFGYHAGGWGKPPVDETGKPLYGDVFGTNAAEFQTKTEEEEIDRTPWGELEPSDEESSEEEEEEESDEDKPDETGFITPADSGLITPGGFSSVPAGMETPELIELRKKKIEEAMDGSETPQLFTVLPEKRTATVGGAMMGSTHIYDMSTVMSRKGPAPELQGVEVALAPEELELDPMAMTQKYEEHVREQQAQVEKEDFSDMVAEHAAKQKQKKRKAQPQDSRGGSKKYKEFKF	0.8966
